The values that follow come from patent publication US20220305006.

Series [1] addresses BACE inhibitor 1 (statine BACE inhibitor 1).
Series [2] concerns the target T1, Peptide 65005.
T1 chain: NLTTYPYFIPL

Series [3] has as its target T2, Peptide 65007.
T2 chain: ALYPYFLPISAK

The target of series [4] is recombinant sAPPα, human, amino acids 19-613, P05067.
Sequence of recombinant sAPPα, human, amino acids 19-613, P05067 (P05067 19-613): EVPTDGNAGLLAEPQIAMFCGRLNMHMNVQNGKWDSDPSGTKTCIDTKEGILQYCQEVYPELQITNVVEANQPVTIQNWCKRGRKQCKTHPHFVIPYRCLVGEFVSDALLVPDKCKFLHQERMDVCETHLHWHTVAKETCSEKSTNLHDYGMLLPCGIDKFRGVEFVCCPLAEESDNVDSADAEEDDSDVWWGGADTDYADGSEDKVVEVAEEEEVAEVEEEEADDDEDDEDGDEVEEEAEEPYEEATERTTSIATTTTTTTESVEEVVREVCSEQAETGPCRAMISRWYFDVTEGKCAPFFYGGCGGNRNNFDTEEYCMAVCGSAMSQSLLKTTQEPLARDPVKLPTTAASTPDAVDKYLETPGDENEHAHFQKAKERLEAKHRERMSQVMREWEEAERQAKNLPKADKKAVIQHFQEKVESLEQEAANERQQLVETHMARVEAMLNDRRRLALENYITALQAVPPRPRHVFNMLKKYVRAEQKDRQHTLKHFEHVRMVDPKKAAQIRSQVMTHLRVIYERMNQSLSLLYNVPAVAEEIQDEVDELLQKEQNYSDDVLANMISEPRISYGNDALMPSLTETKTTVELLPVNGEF

B1: BACE in mouse primary cortical neurons (protein)
chain: ETDEESEEPGRRGSFVEMVDNLRGKSGQGYYVEMTVGSPPQTLNILVDTGSSNFAVGAAPHPFLHRYYQRQLSSTYRDLRKGVYVPYTQGKWEGELGTDLVSIPHGPNVTVRANIAAITESDKFFINGSNWEGILGLAYAEIARPDDSLEPFFDSLVKQTHIPNIFSLQLCGAGFPLNQTEALASVGGSMIIGGIDHSLYTGSLWYTPIRREWYYEVIIVRVEINGQDLKMDCKEYNYDKSIVDSGTTNLRLPKKVFEAAVKSIKAASSTEKFPDGFWLGEQLVCWQAGTTPWNIFPVISLYLMGEVTNQSFRITILPQQYLRPVEDVATSQDDCYKFAVSQSSTGTVMGAVIMEGFYVVFDRARKRIGFAVSACHVHDEFRTAAVEGPFVTADMEDCGYNIPQTDESTLMTIAYVMAAICALFMLPLCLMVCQWRCLRCLRHQHDDFADDISLLK
Consider B1, for which, in series [1], the “CHL1 and L1CAM cleavage (uncleaved substrate/α-tubulin OD ratio, immunoblot), 10 µM, 24 hours” value is “only BACE Inh 4 (blue) clearly inhibited cleavage; BACE Inh 1, peptides 65005 and 65007 and sAPPα did not”; the “uncleaved neurofascin (immunoblot), 10 µM, 24 hours” value was “Only BACE Inh 4 and BACE Inh 1 treatment resulted in an increase of uncleaved NrCAM or neurofascin, respectively”. In series [2], the “CHL1 and L1CAM cleavage (uncleaved substrate/α-tubulin OD ratio, immunoblot), 10 µM, 24 hours” value is “only BACE Inh 4 (blue) clearly inhibited cleavage; BACE Inh 1, peptides 65005 and 65007 and sAPPα did not”; the “uncleaved NrCAM and neurofascin (immunoblot), 10 µM, 24 hours” value is on record as “none of the other inhibitors increased the amount of uncleaved NrCAM or neurofascin substrate”. Moreover, in series [3], the “CHL1 and L1CAM cleavage (uncleaved substrate/α-tubulin OD ratio, immunoblot), 10 µM, 24 hours” value is “only BACE Inh 4 (blue) clearly inhibited cleavage; BACE Inh 1, peptides 65005 and 65007 and sAPPα did not”; the “uncleaved NrCAM and neurofascin (immunoblot), 10 µM, 24 hours” value is “none of the other inhibitors increased the amount of uncleaved NrCAM or neurofascin substrate”. In series [4], the “CHL1 and L1CAM cleavage (uncleaved substrate/α-tubulin OD ratio, immunoblot), 1 µM, 24 hours” value was “only BACE Inh 4 (blue) clearly inhibited cleavage; BACE Inh 1, peptides 65005 and 65007 and sAPPα did not”; the “uncleaved NrCAM and neurofascin (immunoblot), 1 µM, 24 hours” value is recorded as “none of the other inhibitors increased the amount of uncleaved NrCAM or neurofascin substrate”.
